The values that follow come from patent US20110165624A1.

The experiment deals with native Ocr protein (bacteriophage T7 gene 0.3 product) as produced from pMCSG7 (bacteriophage T7). Nature of the experiment: size exclusion chromatography, Superdex 75; predicted monomer 16.6 kDa, dimer 33.3 kDa.

As to “native Ocr protein (bacteriophage T7 gene 0.3 product) as produced from pMCSG7”, the calculated molecular weight on size exclusion column is 35 kDa.
